Laboratory results from PMC12661054, “The CIP2A-TOPBP1 axis facilitates mitotic DNA repair via MiDAS and MMEJ” (Nature Communications, 2025).
One block for each substance: values may come before it.

Assays:
TOPBP1 = TOPBP1 (UniProt Q92547); assay: GFP-Trap co-IP, western blot; details: reference: eGFP-SLX4 wild type; sites T1260
TOPBP1 BRCT0-1-2, 1-290 [1] = biological target: TOPBP1 BRCT0-1-2, 1-290 (UniProt Q92547); assay: fluorescence polarisation titration; details: reference: pT1260 peptide, untreated; sites T1260
TOPBP1 BRCT0-1-2, 1-290 [2] = biological target: TOPBP1 BRCT0-1-2, 1-290 (UniProt Q92547); assay: biotin-peptide pull-down, Coomassie SDS-PAGE; details: reference: unphosphorylated T1260 peptide; sites T1260

- binding against the reference (TOPBP1): lost
Substance: SLX4 (from UniProt Q8IY92) eGFP-SLX4 T1260A

- binding against the reference (TOPBP1 BRCT0-1-2, 1-290 [1]): lost
Substance: SLX4 1253-1267 (from UniProt Q8IY92) pT1260 peptide treated with lambda phosphatase

- binding against the reference (TOPBP1 BRCT0-1-2, 1-290 [2]): gained
Substance: SLX4 1247-1267 (from UniProt Q8IY92) synthetic pT1260 peptide
